# Experimental data published in patent publication US7148071B2, “Quantitative, high-throughput screening method for protein stability” (Duke University, priority 2000, dated 2006).
# Marks after values point to notes of the source that are not given here. Ends that are not written are not given here.
# B1: RNase A: bovine pancreatic ribonuclease A (type I-A) (protein, UniProt P61823 27-150, looked up)
# Ribonuclease pancreatic: KETAAAKFERQHMDSSTSAASSSNYCNQMMKSRNLTKDRCKPVNTFVHESLADVQAVCSQKNVACKNGQTNCYQSYSTMSITDCRETGSSKYPNCAYKTTQANKHIIVACEGNPYVPVHFDASV
# Legend:
# Trp repressor protein = Trp repressor protein (Escherichia coli, UniProt P0A881)
# Method: The concentration of Trp repressor in these experiments was 20 μM; and in (B) the concentration of L-tryptophan in each SUPREX buffer was 200 μM.
# E. coli = assay type: cell-based
# Method: . […] In FIG. 10B, E. coli placed in various concentrations of urea for 30 minutes were studied at 23° C. (closed circles) and 15° C. (open circles).
# (closed circles) and 15° C. (open circles). 1 ml cultures of BL21-(DE3) E. coli were pelleted and resuspended in LB media containing various urea concentrations and incubated for 30 minutes at 15° C. and 23° C. The cells were then pelleted and resuspended in 1 ml of LB media, diluted 1000, plated on LB-agar plates, incubated at 37° C. overnight and the number of colonies were counted.
# [1] = SUPREX analysis of P22 Arc repressor, a homo-dimeric protein; assay type: physicochemical; conditions: ΔGSUPREX adjusted to standard conditions (1 M dimer)
# P22 Arc repressor = P22 Arc repressor (Salmonella phage P22, UniProt P03050); assay: SUPREX analysis of P22 Arc repressor in the absence and presence of cognate DNA; assay type: binding; conditions: Arc dimer 12 μM, absence of DNA, 20 mM phosphate pH=7.4
# Excerpt: . At this concentration the stability of the Arc dimer is less than that detectable by SUPREX. Even with exchange times of several minutes, there is no transition detected in the SUPREX curve. The transition midpoint is shifted off scale to the left; […].
# [2] = cited from earlier work
# [3] = SUPREX (H/D exchange detected by MALDI MS) stability of unpurified proteins in crude E. coli lysates; assay type: physicochemical
# [4] = conventional CD denaturation curves of purified proteins; assay type: physicochemical; conditions: purified protein, pH 8 buffer, FIG. 10A
# Method: FIGS. 10A–10C depict a conventional denaturation curve by CD with purified protein in 0.15 M NaCl, 20 mM Na2HPO4, 20 mM CH3COONa, pH 8.
# [5] = SUPREX analysis of RNase A, normal protocol; assay type: physicochemical
# Method: Two different experimental protocols were employed for the SUPREX analysis of RNase A including one for normal analyses and one for high sensitivity analyses. H/D exchange reactions were initiated by combining 1 μL aliquots of a 100 μM solution of RNase A (fully protonated) in 20 mM sodium phosphate buffer (pH 7.4) with 9 μL volumes of 10 different deuterated exchange buffers containing 20 mM sodium phosphate (pD=7.4) and concentrations of GdmCl that varied between 0.5 and 4 M. After a specified exchange time (typically 65 minutes), a 1 μL aliquot of each exchange reaction was combined with 19 μL of a MALDI matrix solution. The MALDI matrix solution, which comprised an ice-cold, saturated, aqueous solution of SA containing 63% MeCN and 0.1% TFA (pH=3.0), effectively a quenched the H/D exchange reaction and prepared the sample for MALDI analysis. This matrix solution also included two internal mass standards, bovine ubiquitin (8566.1 Da) and hen egg lysozyme (14,303.7 Da). Subsequently, 1 μL of the quenched exchange reaction was spotted on a stainless steel MALDI plate and the solvent was evaporated under a gentle flow of air. […]
# (§1) For both normal and high sensitivity analyses 10 replicate MALDI mass spectra were collected and analyzed to determine an average change in mass relative to the fully protonated sample (ΔMass) at each [GdmCl]. […]
# [6] = high sensitivity SUPREX analysis of RNase A (micro-concentration step); assay type: physicochemical; conditions: high sensitivity protocol
# Method: The high sensitivity SUPREX protocol outlined in FIG. 11 is similar to the SUPREX protocol disclosed above, with the exception that protein samples were subjected to a micro-concentration step after H/D exchange and prior to MALDI analysis. This micro-concentration step involved the use of a batch chromatography method utilizing 10 μL C18 SUPROTIPS™ from AmiKa (Columbia, Md.). It was preferred to quench the H/D exchange reaction with TFA (0.25% v/v) prior to binding the deuterated protein samples to the SUPROTIPS™. This facilitated preservation of the deuteration state of the protein. […]
# as §1
# Values for ΔM0, ΔM∞ and ΔGf were obtained by fitting the ΔMass versus [GdmCl] data to equation 1 using SigmaPlot and a nonlinear least squares analysis. value of 8.47 s^−1 was used, which was calculated based on the data of Bai et al (Bai et al., (1993) Proteins 17: 75–86), using the program SPHERE (Zhang, Ph.D. Thesis, Structural Biology and Molecular Biophysics, University of Pennsylvania); and an m value of 3.1 kcal mol^−1M^−1 was used, which was previously determined in other GdmCl-induced equilibrium unfolding experiments on RNase A (Pace et al., (1990) Biochem. 29: 2564–72). […]
# [7] = cited from earlier work; remark: listed apart in the source
molecule,measurement,setting,value
N[C@@H](Cc1c[nH]c2ccccc12)C(=O)O [L-tryptophan],ΔGBinding,Trp repressor protein,-3.8 kcal/mol
NC(N)=O [urea],viability of E. coli cells,E. coli,does not perturb the viability of the cells
"P22 Arc repressor: P22 Arc repressor, a homo-dimeric protein (MKGMSKMPQFNLRWPREVLDLVRKVAEENGRSVNSEIYQRVMESFKKEGRIGA; also: homo-dimeric protein; UniProt P03050 1-53, looked up)",standard ΔG value,[1],11.3 ± 0.2 kcal/mol
same,maximum ΔGSUPREX value,P22 Arc repressor,< 4.0 kcal/mol
same,previously reported ΔG value,"[2]; conventional CD denaturation studies (Bowie et al., 1989)",11.0 kcal/mol
"λ6–85: monomeric form of the N-terminal domain of λ repressor, wild type",ΔGf (kcal/mol) SUPREX,[3],-5.0 ± 0.4 kcal/mol
same,stability by CD denaturation (linear extrapolation method),[4],6.16 ± 0.13 kcal/mol
same,ΔGf (kcal/mol) CD,"[2]; 25° C., purified protein, published values",−4.4 ± 0.2^b kcal/mol
same,previously reported experimental m value,[2]; measured from CD denaturation curves,2.1±0.1 kcal mol^−1 M^−1
B1,ΔGf from one SUPREX curve,"[5]; FIG. 12B, standard error of 0.2",-12.9 kcal/mol
same,average ΔGf value and standard deviation,[5]; three replicate SUPREX analyses,-12.4 ± 0.4 kcal/mol
same,average ΔGf value and standard deviation,[6]; 3 replicate SUPREX analyses,-12.0 ± 0.5 kcal/mol
same,ΔGf from one SUPREX curve,[6]; standard error of 0.2,-12.4 kcal/mol
same,m value,"[7]; GdmCl-induced equilibrium unfolding (Pace et al., 1990)",3.1 kcal mol^−1M^−1
same,ΔGf by conventional fluorescence denaturation,[7]; Pace et al.,-9.24 ± 0.64 kcal/mol
